Data on two molecules can be found in PMC12246617, “Cryo-EM structures reveal the PP2A–B55α and Eya3 interaction that can be disrupted by a peptide inhibitor” (The Journal of Biological Chemistry, 2025).

The target in assay [1] is T1, FLAG-hEya3 (human Eya3, full length) (human, UniProt Q99504 1-573).
T1 construct: Eya3, human, full length; cloned as FLAG-hEya3 in pCAG; only residues 65-86 are modelled in the structure; also called full-length Eya3; FLAG-Eya3
T1 sequence (looked up): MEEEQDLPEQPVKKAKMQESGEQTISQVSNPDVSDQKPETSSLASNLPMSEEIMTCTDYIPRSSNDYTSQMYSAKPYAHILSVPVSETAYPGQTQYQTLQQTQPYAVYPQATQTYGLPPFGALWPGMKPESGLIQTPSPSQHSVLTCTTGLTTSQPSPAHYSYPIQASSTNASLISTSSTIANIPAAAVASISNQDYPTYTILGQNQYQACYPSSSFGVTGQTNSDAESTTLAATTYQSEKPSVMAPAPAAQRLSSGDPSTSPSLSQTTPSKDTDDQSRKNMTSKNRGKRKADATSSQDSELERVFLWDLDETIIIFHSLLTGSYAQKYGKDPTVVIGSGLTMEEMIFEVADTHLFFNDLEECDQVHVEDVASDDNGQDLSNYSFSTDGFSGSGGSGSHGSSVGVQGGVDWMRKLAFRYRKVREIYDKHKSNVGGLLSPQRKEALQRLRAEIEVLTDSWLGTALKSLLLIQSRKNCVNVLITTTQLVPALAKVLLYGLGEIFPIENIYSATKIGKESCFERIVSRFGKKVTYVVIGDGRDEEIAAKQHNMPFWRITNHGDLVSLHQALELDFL
As to the kind of experiment: mass photometry; proteins combined at a molar ratio of 1.5:1 in 20 mM Tris pH 8, 250 mM NaCl, 1 mM MnCl2, 0.5 mM TCEP, on ice, in the presence or absence of 25 μM B55i peptide; diluted to 100 nM before reading (Refeyn TwoMP). Conditions: both partners purified.

The target in assay [2] is T1, FLAG-hEya3 (human Eya3, full length). As to the kind of experiment: cryo-EM structure; PP2A–B55 + Eya3: 10 μM purified PP2A–B55 incubated with 15 μM full-length Eya3; 0.1% CHAPSO added before vitrification; 3.7 Å. Conditions: both partners purified.

B1: His-hB55 (human PP2A regulatory subunit B55α) (natural protein, UniProt P63151 1-447, looked up)
chain: MAGAGGGNDIQWCFSQVKGAVDDDVAEADIISTVEFNHSGELLATGDKGGRVVIFQQEQENKIQSHSRGEYNVYSTFQSHEPEFDYLKSLEIEEKINKIRWLPQKNAAQFLLSTNDKTIKLWKISERDKRPEGYNLKEEDGRYRDPTTVTTLRVPVFRPMDLMVEASPRRIFANAHTYHINSISINSDYETYLSADDLRINLWHLEITDRSFNIVDIKPANMEELTEVITAAEFHPNSCNTFVYSSSKGTIRLCDMRASALCDRHSKLFEEPEDPSNRSFFSEIISSISDVKFSHSGRYMMTRDYLSVKIWDLNMENRPVETYQVHEYLRSKLCSLYENDCIFDKFECCWNGSDSVVMTGSYNNFFRMFDRNTKRDITLEASRENNKPRTVLKPRKVCASGKRKKDEISVDSLDFNKKILHTAWHPKENIIAVATTNNLYIFQDKVN
notes: PP2A regulatory B subunit B55α, human; cloned as His-hB55 in pFASTbac; Labelled on the His tag with RED-Tris-NTA dye for MST; also called His-B55; His-B55α; source: Hi5 insect cells, purified (nickel resin)
Consider B1, for which the binding result in assay [1] is “binds”.

B2: FLAG-hB55 (B55α subunit of the PP2A–B55 holoenzyme purified from HEK293 FreeStyle cells) (natural protein, human)
chain: AGAGGGNDIQWCFSQVKGAVDDDVAEADIISTVEFNHSGELLATGDKGGRVVIFQQEQENKIQSHSRGEYNVYSTFQSHEPEFDYLKSLEIEEKINKIRWLPQKNAAQFLLSTNDKTIKLWKISERDKRPEGYNLKEEDGRYRDPTTVTTLRVPVFRPMDLMVEASPRRIFANAHTYHINSISINSDYETYLSADDLRINLWHLEITDRSFNIVDIKPANMEELTEVITAAEFHPNSCNTFVYSSSKGTIRLCDMRASALCDRHSKLFEEPEDPSNRSFFSEIISSISDVKFSHSGRYMMTRDYLSVKIWDLNMENRPVETYQVHEYLRSKLCSLYENDCIFDKFECCWNGSDSVVMTGSYNNFFRMFDRNTKRDITLEASRENNKPRTVLKPRKVCASGKRKKDEISVDSLDFNKKILHTAWHPKENIIAVATTNNLYIFQDKVN
notes: PP2A regulatory B subunit B55α, human; FLAG-hB55 in pCAG; The same chain as the first chain of m7, written alone for the contacts seen in the structures; also called FLAG-B55; B55 subunit
In the case of B2, the binding result in assay [2] is “binds”.
